B1: Emerin (Homo sapiens), P50402 (parent)
chain: MDNYADLSDTELTTLLRRYNIPHGPVVGSTRRLYEKKIFEYETQRRRLSPPSSSAASSYSFSDLNSTRGDADMYDLPKKEDALLYQSKGYNDDYYEESYFTTRTYGEPESAGPSRAVRQSVTSFPDADAFHHQVHDDDLLSSSEEECKDRERPMYGRDSAYQSITHYRPVSASRSSLDLSYYPTSSSTSFMSSSSSSSSWLTRRAIRPENRAPGAGLGQDRQVPLWGQLLLFLVFVIVLFFIYHFMQAEEGNPF

The variants in this assay derive from B1. The note with it: with lmna_human LMNA.
As to Q133H, the “effect of a mutation on the interaction” value was “with no effect”.

Source of the values: IntAct's records for PubMed 11587540.
